According to patent US20070129307A1, “Insulin epitopes for the treatment of type 1 diabetes” (The University of British Columbia, priority 2001, published 2007):

T1: murine MHC class I molecule, H-2Kd (mouse)
T1 chain 1: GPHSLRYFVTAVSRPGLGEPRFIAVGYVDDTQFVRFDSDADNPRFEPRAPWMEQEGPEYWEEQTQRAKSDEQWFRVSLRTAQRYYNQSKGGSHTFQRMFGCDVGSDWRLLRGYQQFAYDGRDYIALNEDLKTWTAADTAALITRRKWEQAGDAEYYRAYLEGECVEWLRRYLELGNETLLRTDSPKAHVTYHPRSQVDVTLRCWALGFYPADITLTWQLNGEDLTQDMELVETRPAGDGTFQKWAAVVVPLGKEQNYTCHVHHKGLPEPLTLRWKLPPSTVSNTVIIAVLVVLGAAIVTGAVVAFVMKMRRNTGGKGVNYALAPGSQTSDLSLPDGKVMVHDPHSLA
T1 chain 2: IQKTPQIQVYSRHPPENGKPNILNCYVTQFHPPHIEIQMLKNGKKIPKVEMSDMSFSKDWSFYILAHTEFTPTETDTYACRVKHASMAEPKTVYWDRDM


Columns and labels:
[1] = biological target: T1, murine MHC class I molecule, H-2Kd …; test: MHC class I stabilization assay on TAP-deficient RMAS-Kd cells, anti-H-2Kd-FITC, flow cytometry (background without peptide 6.07%)
[2] = biological target: human MHC class I molecule HLA-A*0201 (human); test: HLA-A2 stabilization on T2 cells loaded with 50 ug/ml peptide, anti-HLA-A2 (BB7.2) flow cytometry, MFI relative to CMV/A2

Row | Binder | % of RMAS-Kd cells staining positive for surface H-2Kd [1] [%] | relative HLA-A2 surface expression (% of CMV/A2 peptide binding) [2] [%]
1 | KYNKANVFL (modifications not checked) [NRP-V7] | 72.7 | –
2 | DLMGYIPLV (modifications not checked) [HCV peptide] | – | > 80
3 | LYLVCGERG (modifications not checked) [INSL] | 73.7 | –
